Source: patent US20190144537A1 (AVEO PHARMACEUTICALS, published 2019)

Key:
[1] = molecular target: T1, recombinant human Notch3 extracellular domain (containing EGF like domains 1-11) Fc fusion protein (human, UniProt Q9UM47 40-467); experiment: SPR (Biacore), 28042 captured as ligand, rhNotch3-Fc injected as sample, 25 C, 1:1 binding fit
T1 construct: Bought from R&D Systems; also called rhNotch3-Fc; Notch3-Fc; not shown: Fc of the bought fusion protein
T1 sequence: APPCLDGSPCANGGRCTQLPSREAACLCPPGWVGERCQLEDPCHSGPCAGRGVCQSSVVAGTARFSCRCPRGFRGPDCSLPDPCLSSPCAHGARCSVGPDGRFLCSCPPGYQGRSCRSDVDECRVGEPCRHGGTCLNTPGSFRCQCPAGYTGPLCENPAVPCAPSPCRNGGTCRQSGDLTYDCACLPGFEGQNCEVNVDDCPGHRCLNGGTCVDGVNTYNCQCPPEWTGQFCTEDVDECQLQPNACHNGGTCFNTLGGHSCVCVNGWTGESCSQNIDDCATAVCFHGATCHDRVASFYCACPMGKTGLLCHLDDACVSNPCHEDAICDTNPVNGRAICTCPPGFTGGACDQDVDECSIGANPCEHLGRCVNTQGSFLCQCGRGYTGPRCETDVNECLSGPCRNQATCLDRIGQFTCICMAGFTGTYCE
Procedure: (§1) Rabbit anti-mouse IgGs (GE Healthcare) are immobilized on carboxymethylated dextran CM4 sensor chips (GE Healthcare) by amine coupling, according to a standard protocol. Analyses are performed at 25° C. and 37° C. using PBS containing 0.05% surfactant P20 as running buffer. The antibody is captured in individual flow cells at a flow rate of 10 μL/minute. Injection time is varied for each antibody to yield an R max between 30 and 60 RU. 250 μg/mL human IgG Fc is injected to block non-specific binding of Fc (from the Notch3 fusion protein) to the capture antibody. Buffer or rhNotch1-Fc (R&D Systems, Minneapolis, Minn.; Cat. No. 3647-TK-050), rhNotch2-Fc (R&D Cat. No. 3735-NT-050), and rhNotch3-Fc (R&D Cat. No. 1559-NT-050), diluted in running buffer is injected sequentially over a reference surface (no antibody captured) and the active surface (antibody to be tested) for 240 seconds at 60 μL/minute. The dissociation phase is monitored for up to 1500 seconds. The surface is then regenerated with two 60-second injections of 10 mM Glycine-HCl, pH 2.25, at a flow rate of 30 μL/minute. The rhNotch3-Fc, rhNotch2-Fc, and rhNotch1-Fc concentration range tested are 100 nM to 3.125 nM (2 fold dilution).

[2] = molecular target: T1, recombinant human Notch3 extracellular …; experiment: SPR (Biacore), 28042 captured as ligand, rhNotch3-Fc injected as sample, 25 C, 1:1 binding fit; the same fit is printed under the Notch3 sensorgram as ka 2.720E+5
Procedure: as §1

cynoNotch3 monomer = molecular target: T2, cynoNotch3 monomer (cyno); experiment: binding to cynoNotch3 monomer at 25° C., protocol similar to that for hNotch3 (method not named)
T2 construct: Only named as 'cynoNotch3 monomer'

rhNotch1-Fc = molecular target: T3, rhNotch1-Fc (human, UniProt P46531 19-1735); experiment: SPR (Biacore), 28042 captured as ligand, rhNotch1-Fc as sample, 25 C; software 1:1 fit printed under a sensorgram that stays below about 1.5; the drawn table gives '-' for this pair
T3 construct: extracellular domain; Bought from R&D Systems; also called R&D Cat. No. 3647-TK-050; not shown: Fc of the bought fusion protein
T3 sequence (P46531 19-1735): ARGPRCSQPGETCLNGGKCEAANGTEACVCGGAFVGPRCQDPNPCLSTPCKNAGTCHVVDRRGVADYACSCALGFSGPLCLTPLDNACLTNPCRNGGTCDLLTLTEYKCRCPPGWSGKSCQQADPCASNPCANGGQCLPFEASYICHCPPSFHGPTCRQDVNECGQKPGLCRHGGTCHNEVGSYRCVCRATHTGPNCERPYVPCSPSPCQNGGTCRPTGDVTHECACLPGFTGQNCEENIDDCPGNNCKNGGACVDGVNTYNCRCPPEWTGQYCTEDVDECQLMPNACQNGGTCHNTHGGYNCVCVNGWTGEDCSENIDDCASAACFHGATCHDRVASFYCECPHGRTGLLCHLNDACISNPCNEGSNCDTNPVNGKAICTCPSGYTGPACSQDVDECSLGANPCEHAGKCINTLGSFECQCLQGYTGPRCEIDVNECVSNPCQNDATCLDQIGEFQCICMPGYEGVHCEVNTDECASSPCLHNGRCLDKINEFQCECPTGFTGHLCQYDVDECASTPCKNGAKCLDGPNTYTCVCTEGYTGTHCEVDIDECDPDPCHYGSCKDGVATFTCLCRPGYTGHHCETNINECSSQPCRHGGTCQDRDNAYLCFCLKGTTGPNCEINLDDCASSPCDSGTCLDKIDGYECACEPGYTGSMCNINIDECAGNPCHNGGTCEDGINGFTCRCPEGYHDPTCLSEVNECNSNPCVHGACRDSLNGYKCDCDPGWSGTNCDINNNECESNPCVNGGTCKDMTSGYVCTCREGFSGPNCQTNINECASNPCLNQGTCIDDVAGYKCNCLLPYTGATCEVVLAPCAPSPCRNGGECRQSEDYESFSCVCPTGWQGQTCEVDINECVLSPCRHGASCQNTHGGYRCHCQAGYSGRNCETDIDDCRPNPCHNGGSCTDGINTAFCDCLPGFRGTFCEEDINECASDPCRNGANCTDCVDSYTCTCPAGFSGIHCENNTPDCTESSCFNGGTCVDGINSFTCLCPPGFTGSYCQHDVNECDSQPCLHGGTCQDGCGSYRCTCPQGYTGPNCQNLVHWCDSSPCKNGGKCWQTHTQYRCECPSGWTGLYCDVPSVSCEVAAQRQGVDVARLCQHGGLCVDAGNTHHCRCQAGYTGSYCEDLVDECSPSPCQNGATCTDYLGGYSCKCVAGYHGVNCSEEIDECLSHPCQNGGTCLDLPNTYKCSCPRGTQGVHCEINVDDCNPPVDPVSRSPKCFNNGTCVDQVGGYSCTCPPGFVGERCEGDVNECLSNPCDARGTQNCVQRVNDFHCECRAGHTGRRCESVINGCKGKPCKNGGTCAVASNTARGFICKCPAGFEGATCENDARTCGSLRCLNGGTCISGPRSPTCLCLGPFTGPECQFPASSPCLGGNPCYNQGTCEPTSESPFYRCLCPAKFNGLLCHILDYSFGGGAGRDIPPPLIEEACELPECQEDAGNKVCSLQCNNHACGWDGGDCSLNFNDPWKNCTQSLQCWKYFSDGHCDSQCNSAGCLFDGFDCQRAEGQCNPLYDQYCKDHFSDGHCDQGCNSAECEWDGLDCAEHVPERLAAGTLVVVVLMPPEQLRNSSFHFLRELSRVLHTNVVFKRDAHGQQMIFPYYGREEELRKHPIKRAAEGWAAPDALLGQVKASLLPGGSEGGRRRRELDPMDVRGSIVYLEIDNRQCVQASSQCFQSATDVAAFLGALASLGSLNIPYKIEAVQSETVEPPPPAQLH
Procedure: as §1

[3] = molecular target: T1, recombinant human Notch3 extracellular …; experiment: SPR (Biacore), 28042 captured as ligand, rhNotch3-Fc injected as sample, 25 C, 1:1 binding fit; the same fit is printed under the Notch3 sensorgram as kd 2.580E-4
Procedure: as §1

[4] = molecular target: T1, recombinant human Notch3 extracellular …; experiment: SPR (Biacore T100), antibody captured by goat anti-human IgG, rhNotch3-Fc injected, 25° C.
Procedure: (§2) Goat anti-human IgG is immobilized on carboxymethylated dextran CM4 sensor chips (GE Healthcare) by amine coupling, according to a standard protocol. Analyses are performed at 25° C. and 37° C. using PBS containing 0.05% surfactant P20 as running buffer. The antibody is captured in individual flow cells at a flow rate of 10 μl/minute. Injection time is varied for each antibody to yield an R max between 30 and 60 resonance units (RU). 250 μg/mL human IgG Fc is injected to block non-specific binding of Fc (from the Notch3 fusion protein) to the capture antibody. Buffer or rhNotch3-Fc diluted in running buffer is injected sequentially over a reference surface (no antibody captured) and the active surface (antibody to be tested) for 240 seconds at 60 μL/minute. The dissociation phase is monitored for up to 1500 seconds. The surface is then regenerated with two 60-second injections of 10 mM Glycine-HCl, pH 2.25, at a flow rate of 30 μL/minute. The rhNotch3-Fc concentration range tested is 100 nM to 3.125 nM (2 fold dilution).
(§3) Kinetic parameters can be determined using the kinetic function of the BIAevaluation software (GE Healthcare) with double reference subtraction. Kinetic parameters for the antibody, kₐ (association rate constant), kd (dissociation rate constant) and KD (equilibrium dissociation constant) are determined.

[5] = molecular target: T4, human Notch3 on the cell surface (human, UniProt Q9UM47 40-2321); experiment: FACS at 4° C. on cells expressing human Notch3, one site binding fit; cell line not stated
T4 construct: whole, on cells; also called hNotch3; cell surface human Notch3
Text: CHO N3 (Flp-In-CHO cells (Invitrogen) stably transfected with human Notch3), HCC2429 cells, and RL-952 cells expressing human Notch3 are washed once with PBS containing calcium chloride and magnesium chloride (Invitrogen) and harvested using cell dissociation buffer (Invitrogen). Cells are washed a second time with PBS and resuspended in FACS buffer (PBS with 0.5% BSA (Sigma-Aldrich)) for a final cell concentration of 250,000 cells per well into a 96-well v-bottom plate. Purified antibodies are diluted in FACS buffer over a concentration range of 100 nM to 0 nM. Cells are then incubated at 4° C. with 100 μL of antibody for one hour, washed with FACS buffer twice, and resuspended in 100 μL of goat-anti mouse PE-conjugated antibody (Jackson Immuno Research). Cells are incubated at 4° C. for 30 minutes in the dark, washed once with FACS buffer, and then analyzed using a Beckman Coulter Cytomics FC 500 instrument. The geometric mean of the florescent intensity then is calculated for each antibody concentration. These values then are entered into Prism software (GraphPad, La Jolla, Calif.) and used to generate a binding curve by plotting geometric mean versus antibody concentration.

[6] = molecular target: T5, human Notch1 on the cell surface (human, UniProt P46531 19-2555); experiment: FACS on FlpIn CHO cells expressing full length human Notch1, anti-human PE secondary antibody
T5 construct: whole, on cells; also called cell surface human Notch1; full length human Notch1
T5 sequence (P46531 19-2555): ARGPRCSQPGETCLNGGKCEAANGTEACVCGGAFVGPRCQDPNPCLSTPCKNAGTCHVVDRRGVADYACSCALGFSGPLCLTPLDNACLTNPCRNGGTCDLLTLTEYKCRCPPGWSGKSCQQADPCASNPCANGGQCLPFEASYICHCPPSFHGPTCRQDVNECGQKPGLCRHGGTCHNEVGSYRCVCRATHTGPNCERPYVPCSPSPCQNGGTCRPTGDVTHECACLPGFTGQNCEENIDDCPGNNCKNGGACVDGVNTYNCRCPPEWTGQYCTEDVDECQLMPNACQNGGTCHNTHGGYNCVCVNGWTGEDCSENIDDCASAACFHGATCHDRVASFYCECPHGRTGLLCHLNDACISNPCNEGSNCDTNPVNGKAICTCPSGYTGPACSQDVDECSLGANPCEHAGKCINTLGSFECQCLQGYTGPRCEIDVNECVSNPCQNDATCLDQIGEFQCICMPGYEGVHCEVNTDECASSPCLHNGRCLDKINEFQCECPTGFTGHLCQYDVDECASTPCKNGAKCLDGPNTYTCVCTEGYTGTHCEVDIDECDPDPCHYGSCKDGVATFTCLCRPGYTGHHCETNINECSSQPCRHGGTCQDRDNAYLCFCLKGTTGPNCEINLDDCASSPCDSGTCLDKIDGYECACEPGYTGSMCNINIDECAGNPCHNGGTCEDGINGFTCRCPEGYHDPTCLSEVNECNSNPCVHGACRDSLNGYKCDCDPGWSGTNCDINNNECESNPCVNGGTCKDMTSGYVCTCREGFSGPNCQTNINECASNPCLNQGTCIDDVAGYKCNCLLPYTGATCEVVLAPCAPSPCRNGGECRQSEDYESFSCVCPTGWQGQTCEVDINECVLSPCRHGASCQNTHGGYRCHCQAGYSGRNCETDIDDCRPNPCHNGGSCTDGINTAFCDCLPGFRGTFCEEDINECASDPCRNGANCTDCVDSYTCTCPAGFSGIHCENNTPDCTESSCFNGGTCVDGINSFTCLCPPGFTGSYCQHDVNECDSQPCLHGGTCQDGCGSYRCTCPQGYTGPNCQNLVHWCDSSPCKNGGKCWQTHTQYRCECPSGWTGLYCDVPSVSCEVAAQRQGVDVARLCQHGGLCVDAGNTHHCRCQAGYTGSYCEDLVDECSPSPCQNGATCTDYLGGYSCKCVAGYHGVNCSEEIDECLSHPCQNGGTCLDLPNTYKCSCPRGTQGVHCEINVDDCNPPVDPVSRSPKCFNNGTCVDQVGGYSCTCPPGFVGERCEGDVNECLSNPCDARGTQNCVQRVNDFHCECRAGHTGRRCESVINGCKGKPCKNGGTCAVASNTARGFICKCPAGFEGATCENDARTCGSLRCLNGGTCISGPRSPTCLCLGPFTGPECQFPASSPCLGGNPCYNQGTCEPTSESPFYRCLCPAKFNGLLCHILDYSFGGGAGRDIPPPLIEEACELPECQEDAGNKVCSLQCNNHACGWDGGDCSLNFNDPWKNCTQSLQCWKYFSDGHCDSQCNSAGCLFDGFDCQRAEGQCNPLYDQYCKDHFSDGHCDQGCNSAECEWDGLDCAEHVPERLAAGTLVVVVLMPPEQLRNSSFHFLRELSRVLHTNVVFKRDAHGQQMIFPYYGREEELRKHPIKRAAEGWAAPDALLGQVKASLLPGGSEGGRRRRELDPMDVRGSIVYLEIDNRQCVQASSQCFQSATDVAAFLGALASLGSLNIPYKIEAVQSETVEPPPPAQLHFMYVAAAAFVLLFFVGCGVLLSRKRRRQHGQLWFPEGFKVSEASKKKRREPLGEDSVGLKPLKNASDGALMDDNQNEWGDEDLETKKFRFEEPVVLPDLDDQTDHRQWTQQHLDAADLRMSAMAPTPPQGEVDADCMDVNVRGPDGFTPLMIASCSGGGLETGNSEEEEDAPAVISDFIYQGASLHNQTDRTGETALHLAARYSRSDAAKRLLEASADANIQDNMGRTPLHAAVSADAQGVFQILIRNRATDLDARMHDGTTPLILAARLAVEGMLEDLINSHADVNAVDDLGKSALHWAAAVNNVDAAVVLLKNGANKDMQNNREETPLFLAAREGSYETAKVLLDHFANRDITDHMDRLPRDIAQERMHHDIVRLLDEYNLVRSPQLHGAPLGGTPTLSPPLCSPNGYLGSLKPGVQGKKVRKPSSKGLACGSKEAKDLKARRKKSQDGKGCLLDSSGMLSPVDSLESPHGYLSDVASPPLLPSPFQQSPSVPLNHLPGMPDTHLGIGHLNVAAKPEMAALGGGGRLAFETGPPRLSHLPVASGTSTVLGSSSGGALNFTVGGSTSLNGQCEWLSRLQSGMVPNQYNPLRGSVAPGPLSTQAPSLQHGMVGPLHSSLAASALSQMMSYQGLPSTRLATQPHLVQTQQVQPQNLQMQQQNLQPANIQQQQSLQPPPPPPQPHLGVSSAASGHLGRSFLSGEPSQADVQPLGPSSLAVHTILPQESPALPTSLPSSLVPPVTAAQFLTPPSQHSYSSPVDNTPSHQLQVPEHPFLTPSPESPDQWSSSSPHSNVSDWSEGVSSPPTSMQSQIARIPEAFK
Procedure: (§4) Full length Notch receptor cDNAs cloned into pcDNA5FRT were transfected into FlpIn™ CHO cells and selected with 600 μg/ml hygromycin (Sigma), according to the manufacturer's protocol. Cell surface expression of Notch receptors is confirmed by FACS analysis using anti-Notch1 PE, anti-Notch2 PE or anti-Notch3 PE control antibodies (Biolegend). […] FACS is performed on a BD FACSCanto II cell analyzer (BD Biosciences) and analyzed using FlowJo software.

[7] = molecular target: T6, human Notch2 on the cell surface (human, UniProt Q04721 26-2471); experiment: FACS on FlpIn CHO cells expressing full length human Notch2, anti-human PE secondary antibody
T6 construct: whole, on cells; also called cell surface human Notch2; full length human Notch2
Procedure: as §4

[8] = molecular target: T4, human Notch3 on the cell surface; experiment: cell-based or functional assay
[9] = molecular target: T7, murine Notch3 on the cell surface (murine, UniProt Q61982 40-2318); experiment: FACS on FlpIn CHO cells expressing full length murine Notch3, 5 ug/ml antibody, anti-human PE secondary antibody
T7 construct: whole, on cells; also called mNotch3; full length murine Notch3
Procedure: as §4

[10] = molecular target: T1, recombinant human Notch3 extracellular …; experiment: SPR (Biacore T100), antibody captured by goat anti-human IgG, rhNotch3-Fc injected, 37° C.
Procedure: as §2, §3

B1: 28042 antibody (antibody, human IgG1, kappa, V domains shown)
VH: EVQLLESGGGLVQPGGSLRLSCAASGFTFSDYMMSWVRQAPGKGLEWVSWIRSSGGTTLYADSVKGRFTISRDNSKNTLYLQMNSLRAEDTATYYCARVGGGTTGYAFDIWGQGTMVTVSS
VL: DIQMTQSPSSLSASVGDRVTITCRASQSISNYLNWYQQKPGKAPKLLIYGASSLQSGVPSRVSGTGSGTDFTLTISSLQPEDFATYYCQQSYSPSFTFGPGTKVDFER
B1 gave a Kd [1] of 0.948 nM, a kon [2] of 272000 M⁻¹ s⁻¹ and a Kd (cynoNotch3 monomer) of 806 nM. For the same binder, the koff (rhNotch1-Fc) was 0.000313 s⁻¹, the kon (rhNotch1-Fc) was 104000 M⁻¹ s⁻¹ and the koff [3] was 0.000258 s⁻¹. The Kd [4] was 2.55 nM, the koff [4] was 0.000299 s⁻¹ and the kon [4] was 177000 M⁻¹ s⁻¹. For the same binder, the Kd [5] was 2.72 nM, the binding result [6] was “no binding” and the binding result [7] was “no binding”. The “IC50; % inhibition of hJag2-mFc-stimulated RBP-Jk luciferase reporter activity in MDA-MB-468 cells with endogenous human Notch3” value [8] was 0.53 ug/ml (unit taken from the x axis 'log (ug/ml)'; the table prints none), the “LogIC50; same reporter assay” value [8] was -0.276 log (ug/ml) and the binding result [9] was “binds”. For the same binder, the Kd [10] was 4.18 nM, the koff [10] was 0.000396 s⁻¹ and the kon [10] was 94700 M⁻¹ s⁻¹.
